Experimental data from PMC3401526.

Legend:
[1] = target: Cav3.2 T-type calcium channel α 1H subunit (UniProt O95180)
[2] = target: Cav3.2 T-type calcium channel α 1H subunit (UniProt O95180); remark: listed apart in the source

UniProt O95180, sequence (O95180 whole entry): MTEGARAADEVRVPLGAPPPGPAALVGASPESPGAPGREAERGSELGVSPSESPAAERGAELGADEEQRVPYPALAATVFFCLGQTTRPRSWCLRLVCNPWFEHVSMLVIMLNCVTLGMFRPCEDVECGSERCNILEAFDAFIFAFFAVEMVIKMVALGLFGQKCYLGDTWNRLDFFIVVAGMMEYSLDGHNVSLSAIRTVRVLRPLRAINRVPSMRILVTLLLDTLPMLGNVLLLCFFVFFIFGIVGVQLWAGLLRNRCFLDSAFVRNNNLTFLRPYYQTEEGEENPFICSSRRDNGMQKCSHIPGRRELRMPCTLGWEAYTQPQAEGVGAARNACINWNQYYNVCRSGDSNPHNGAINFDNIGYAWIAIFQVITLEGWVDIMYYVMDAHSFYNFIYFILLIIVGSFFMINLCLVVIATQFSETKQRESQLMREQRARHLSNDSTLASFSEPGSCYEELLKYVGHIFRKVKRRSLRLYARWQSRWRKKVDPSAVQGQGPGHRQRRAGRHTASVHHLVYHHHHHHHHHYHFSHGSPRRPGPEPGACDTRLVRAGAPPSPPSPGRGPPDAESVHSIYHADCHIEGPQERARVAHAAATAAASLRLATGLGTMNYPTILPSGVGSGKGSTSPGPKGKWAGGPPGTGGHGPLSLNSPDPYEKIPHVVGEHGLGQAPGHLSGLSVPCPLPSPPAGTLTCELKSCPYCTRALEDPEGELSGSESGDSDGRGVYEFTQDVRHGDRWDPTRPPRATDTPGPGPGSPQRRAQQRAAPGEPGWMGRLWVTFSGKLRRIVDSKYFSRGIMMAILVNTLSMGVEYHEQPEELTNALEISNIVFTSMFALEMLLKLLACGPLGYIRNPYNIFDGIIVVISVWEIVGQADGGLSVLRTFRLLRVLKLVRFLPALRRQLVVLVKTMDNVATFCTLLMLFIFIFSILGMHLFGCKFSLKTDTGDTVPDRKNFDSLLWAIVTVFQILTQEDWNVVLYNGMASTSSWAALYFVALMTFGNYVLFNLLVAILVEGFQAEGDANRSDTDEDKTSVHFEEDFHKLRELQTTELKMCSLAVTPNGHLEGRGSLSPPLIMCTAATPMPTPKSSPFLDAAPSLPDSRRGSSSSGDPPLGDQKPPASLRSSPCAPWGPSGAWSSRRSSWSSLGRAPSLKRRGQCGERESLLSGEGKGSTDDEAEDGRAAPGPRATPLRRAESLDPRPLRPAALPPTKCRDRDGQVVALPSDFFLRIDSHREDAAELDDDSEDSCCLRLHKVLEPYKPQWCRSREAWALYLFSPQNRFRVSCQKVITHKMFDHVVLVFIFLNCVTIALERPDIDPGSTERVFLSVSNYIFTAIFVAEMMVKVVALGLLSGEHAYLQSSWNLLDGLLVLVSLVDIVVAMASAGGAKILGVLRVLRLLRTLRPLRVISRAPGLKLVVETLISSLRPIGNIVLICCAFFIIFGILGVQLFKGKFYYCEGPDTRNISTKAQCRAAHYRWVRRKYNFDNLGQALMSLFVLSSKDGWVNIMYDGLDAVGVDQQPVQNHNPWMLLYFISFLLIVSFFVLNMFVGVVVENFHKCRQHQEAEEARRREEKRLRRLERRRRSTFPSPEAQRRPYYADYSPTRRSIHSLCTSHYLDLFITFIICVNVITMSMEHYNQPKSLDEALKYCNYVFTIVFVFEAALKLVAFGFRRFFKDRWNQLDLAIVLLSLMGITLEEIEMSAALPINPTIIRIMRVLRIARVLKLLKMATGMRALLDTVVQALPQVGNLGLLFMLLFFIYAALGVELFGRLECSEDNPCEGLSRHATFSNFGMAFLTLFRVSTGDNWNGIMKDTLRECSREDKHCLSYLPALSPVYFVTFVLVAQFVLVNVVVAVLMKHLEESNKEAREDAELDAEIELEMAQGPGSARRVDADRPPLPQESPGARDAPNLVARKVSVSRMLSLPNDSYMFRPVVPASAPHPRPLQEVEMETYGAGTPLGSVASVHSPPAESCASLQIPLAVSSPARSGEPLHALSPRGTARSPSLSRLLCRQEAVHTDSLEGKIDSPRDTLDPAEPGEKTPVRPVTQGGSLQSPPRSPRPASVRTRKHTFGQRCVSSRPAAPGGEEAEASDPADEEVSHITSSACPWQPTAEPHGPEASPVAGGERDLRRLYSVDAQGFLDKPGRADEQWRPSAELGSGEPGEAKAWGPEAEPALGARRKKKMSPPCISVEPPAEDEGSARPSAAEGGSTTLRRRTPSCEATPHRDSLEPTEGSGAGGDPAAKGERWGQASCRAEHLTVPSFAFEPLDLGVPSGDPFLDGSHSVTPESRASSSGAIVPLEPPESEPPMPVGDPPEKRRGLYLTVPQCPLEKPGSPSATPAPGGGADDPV

percentage of increase in calcium influx through Cav3.2 with respect to control, SQAP with shorter depolarization (0.5 ms at +50 mV); not a rescue of the ΔKelch effect [1]: 38 % increase
percentage of increase in calcium influx through Cav3.2 with respect to control, SQAP with shorter hyperpolarization (6 ms at -90 mV); not a rescue of the ΔKelch effect [1]: 31 % increase
percentage of increase in calcium influx through Cav3.2 with respect to control, square action potential (SQAP), first stimulus [2]: 25 % increase
Substance: ΔKelch, truncated KLHL1 mutant lacking the Kelch domains (domain or fragment)
